Data taken from the supplement of paper PMC9112550, “Optimization of the antimicrobial peptide Bac7 by deep mutational scanning” (BMC Biology, 2022).

Test system: Escherichia coli TOP10
Assay: shrunken log2 fold change of peptide-encoding DNA abundance (4.5 h post-induction vs induction); higher = less antimicrobial activity (less host growth inhibition)
Details: time post-induction: 4.5 h; library: site-saturation at positions 5, 18, 19, 20
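Further: peptides expressed intracellularly from a pBAD plasmid library in pooled LB shake-flask culture, induced with 0.3% L-arabinose, DNA abundance read by NGS, three biological replicates, DESeq2 with apeglm shrinkage.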

RRIRPRPPRLPRPRPRPSSMPRP
shrunken log2 fold change: -0.29

RRIRNRPPRLPRPRPRPKIIPRP
shrunken log2 fold change: -0.118

RRIRERPPRLPRPRPRPNPFPRP
shrunken log2 fold change: 0.0226

RRIRGRPPRLPRPRPRPPTNPRP
shrunken log2 fold change: 0.866

RRIRHRPPRLPRPRPRPIENPRP
shrunken log2 fold change: -0.143

RRIRFRPPRLPRPRPRPWLHPRP
shrunken log2 fold change: 0.0608

RRIRTRPPRLPRPRPRPYDNPRP
shrunken log2 fold change: -0.141

RRIRMRPPRLPRPRPRPNEIPRP
shrunken log2 fold change: 0.0871

RRIRHRPPRLPRPRPRPICKPRP
shrunken log2 fold change: -0.204

RRIRTRPPRLPRPRPRPGDDPRP
shrunken log2 fold change: 0.24

RRIRQRPPRLPRPRPRPFYKPRP
shrunken log2 fold change: -0.118

RRIRARPPRLPRPRPRPELPPRP
shrunken log2 fold change: 1.5

RRIRMRPPRLPRPRPRPISHPRP
shrunken log2 fold change: -0.018

RRIRNRPPRLPRPRPRPQLGPRP
shrunken log2 fold change: -0.124

RRIRSRPPRLPRPRPRPTMFPRP
shrunken log2 fold change: -0.0103

RRIRSRPPRLPRPRPRPQRIPRP
shrunken log2 fold change: -0.322

RRIRVRPPRLPRPRPRPWTTPRP
shrunken log2 fold change: 0.115

RRIRFRPPRLPRPRPRPYPDPRP
shrunken log2 fold change: 0.0764

RRIRVRPPRLPRPRPRPCCIPRP
shrunken log2 fold change: -0.0914

RRIRMRPPRLPRPRPRPWMNPRP
shrunken log2 fold change: -0.00973

RRIRLRPPRLPRPRPRPYDSPRP
shrunken log2 fold change: 0.00122

RRIRYRPPRLPRPRPRPENIPRP
shrunken log2 fold change: -0.105

RRIRNRPPRLPRPRPRPYDIPRP
shrunken log2 fold change: -0.0698

RRIRVRPPRLPRPRPRPWIMPRP
shrunken log2 fold change: -0.0202

RRIRSRPPRLPRPRPRPVDHPRP
shrunken log2 fold change: -0.00391

RRIRGRPPRLPRPRPRPWIWPRP
shrunken log2 fold change: 0.236

RRIRGRPPRLPRPRPRPHEFPRP
shrunken log2 fold change: 0.144

RRIRGRPPRLPRPRPRPSWLPRP
shrunken log2 fold change: 0.519

RRIRYRPPRLPRPRPRPWRPPRP
shrunken log2 fold change: -0.0287

RRIRQRPPRLPRPRPRPCFNPRP
shrunken log2 fold change: -0.161

RRIRQRPPRLPRPRPRPALRPRP
shrunken log2 fold change: -0.00883

RRIRDRPPRLPRPRPRPETMPRP
shrunken log2 fold change: 0.0179

RRIRSRPPRLPRPRPRPARTPRP
shrunken log2 fold change: 0.293

RRIRFRPPRLPRPRPRPRYCPRP
shrunken log2 fold change: -0.647

RRIRPRPPRLPRPRPRPMGRPRP
shrunken log2 fold change: -0.0125

RRIRQRPPRLPRPRPRPANRPRP
shrunken log2 fold change: -0.0467

RRIRRRPPRLPRPRPRPWGNPRP
shrunken log2 fold change: 0.352

RRIRVRPPRLPRPRPRPSDFPRP
shrunken log2 fold change: -0.394

RRIRMRPPRLPRPRPRPHLWPRP
shrunken log2 fold change: 0.374

RRIRARPPRLPRPRPRPQNEPRP
shrunken log2 fold change: -0.12

RRIRCRPPRLPRPRPRPMSPPRP
shrunken log2 fold change: -0.0415

RRIRFRPPRLPRPRPRPDENPRP
shrunken log2 fold change: -0.0759

RRIRARPPRLPRPRPRPSTLPRP
shrunken log2 fold change: 0.111

RRIRRRPPRLPRPRPRPLCRPRP
shrunken log2 fold change: 0.224

RRIRCRPPRLPRPRPRPQKMPRP
shrunken log2 fold change: -0.0362

RRIRKRPPRLPRPRPRPTIDPRP
shrunken log2 fold change: 0.128

RRIRYRPPRLPRPRPRPFYQPRP
shrunken log2 fold change: -0.224

RRIRYRPPRLPRPRPRPPPHPRP
shrunken log2 fold change: 0.737

RRIRHRPPRLPRPRPRPLRPPRP
shrunken log2 fold change: 0.639

RRIRARPPRLPRPRPRPAVMPRP
shrunken log2 fold change: 0.399

RRIRDRPPRLPRPRPRPADVPRP
shrunken log2 fold change: 0.384

RRIRDRPPRLPRPRPRPYSNPRP
shrunken log2 fold change: -0.045

RRIRHRPPRLPRPRPRPLAVPRP
shrunken log2 fold change: 0.0391

RRIRFRPPRLPRPRPRPKDGPRP
shrunken log2 fold change: -0.184

RRIRMRPPRLPRPRPRPFMDPRP
shrunken log2 fold change: -0.119

RRIRFRPPRLPRPRPRPQYTPRP
shrunken log2 fold change: -0.616

RRIRARPPRLPRPRPRPNNSPRP
shrunken log2 fold change: -0.483

RRIRWRPPRLPRPRPRPRLDPRP
shrunken log2 fold change: 0.459

RRIRDRPPRLPRPRPRPEAFPRP
shrunken log2 fold change: 0.119

RRIRPRPPRLPRPRPRPEYCPRP
shrunken log2 fold change: -0.146

RRIRLRPPRLPRPRPRPKHHPRP
shrunken log2 fold change: -0.296

RRIRARPPRLPRPRPRPHREPRP
shrunken log2 fold change: 0.0826

RRIRIRPPRLPRPRPRPDHEPRP
shrunken log2 fold change: 0.147

RRIRRRPPRLPRPRPRPAKPPRP
shrunken log2 fold change: 0.125

RRIRSRPPRLPRPRPRPDAVPRP
shrunken log2 fold change: 0.32

RRIRNRPPRLPRPRPRPQCWPRP
shrunken log2 fold change: 0.057

RRIRFRPPRLPRPRPRPCKTPRP
shrunken log2 fold change: 0.00592

RRIRYRPPRLPRPRPRPEDKPRP
shrunken log2 fold change: -0.0222

RRIRPRPPRLPRPRPRPMSPPRP
shrunken log2 fold change: -0.194

RRIRLRPPRLPRPRPRPSLQPRP
shrunken log2 fold change: -0.348

RRIRSRPPRLPRPRPRPKLVPRP
shrunken log2 fold change: -0.0443

RRIRVRPPRLPRPRPRPPHNPRP
shrunken log2 fold change: 0.154

RRIRVRPPRLPRPRPRPRQKPRP
shrunken log2 fold change: 0.212

RRIRNRPPRLPRPRPRPEKCPRP
shrunken log2 fold change: -0.0684

RRIRIRPPRLPRPRPRPFHPPRP
shrunken log2 fold change: -0.111

RRIRCRPPRLPRPRPRPIDKPRP
shrunken log2 fold change: -0.161

RRIRTRPPRLPRPRPRPIQDPRP
shrunken log2 fold change: -0.867

RRIRVRPPRLPRPRPRPFYGPRP
shrunken log2 fold change: -0.127

RRIRFRPPRLPRPRPRPPCKPRP
shrunken log2 fold change: 0.352

RRIRVRPPRLPRPRPRPAEMPRP
shrunken log2 fold change: 0.0714

RRIRIRPPRLPRPRPRPWFIPRP
shrunken log2 fold change: -0.243

RRIRARPPRLPRPRPRPAKGPRP
shrunken log2 fold change: 0.342

RRIRDRPPRLPRPRPRPNQCPRP
shrunken log2 fold change: -0.436

RRIRIRPPRLPRPRPRPTFSPRP
shrunken log2 fold change: -0.545

RRIRERPPRLPRPRPRPPYDPRP
shrunken log2 fold change: -1.12

RRIRYRPPRLPRPRPRPITMPRP
shrunken log2 fold change: -1.13

RRIRQRPPRLPRPRPRPMIPPRP
shrunken log2 fold change: -0.0361

RRIRGRPPRLPRPRPRPNRFPRP
shrunken log2 fold change: 0.282

RRIRTRPPRLPRPRPRPTDGPRP
shrunken log2 fold change: -0.0714

RRIRCRPPRLPRPRPRPDAFPRP
shrunken log2 fold change: 0.467

RRIRHRPPRLPRPRPRPCNWPRP
shrunken log2 fold change: -0.0331

RRIRGRPPRLPRPRPRPGFSPRP
shrunken log2 fold change: 0.644

RRIRTRPPRLPRPRPRPQRPPRP
shrunken log2 fold change: 0.158

RRIRKRPPRLPRPRPRPKLNPRP
shrunken log2 fold change: 0.218

RRIRYRPPRLPRPRPRPWPDPRP
shrunken log2 fold change: -0.137

RRIRPRPPRLPRPRPRPLSNPRP
shrunken log2 fold change: -0.1

RRIRCRPPRLPRPRPRPRQMPRP
shrunken log2 fold change: -0.136

RRIRERPPRLPRPRPRPIWDPRP
shrunken log2 fold change: -0.254

RRIRFRPPRLPRPRPRPDANPRP
shrunken log2 fold change: -0.138

RRIRERPPRLPRPRPRPYFTPRP
shrunken log2 fold change: -0.971

RRIRGRPPRLPRPRPRPPRRPRP
shrunken log2 fold change: 1.28

RRIRRRPPRLPRPRPRPIAYPRP
shrunken log2 fold change: 0.0129

RRIRTRPPRLPRPRPRPMSFPRP
shrunken log2 fold change: -0.0183

RRIRGRPPRLPRPRPRPWSWPRP
shrunken log2 fold change: 1.1

RRIRQRPPRLPRPRPRPKIPPRP
shrunken log2 fold change: -0.0111

RRIRRRPPRLPRPRPRPPHPPRP
shrunken log2 fold change: 0.886

RRIRDRPPRLPRPRPRPAWTPRP
shrunken log2 fold change: -0.0791

RRIRGRPPRLPRPRPRPWCCPRP
shrunken log2 fold change: 0.0685

RRIRWRPPRLPRPRPRPVLVPRP
shrunken log2 fold change: 0.298
